In patent US20160200782A1:

What was measured:
Experiment in all cases: cell-based or functional assay
[1] = biological target: Ab1(H396P)(h) (human) (UniProt P00519)
[2] = biological target: Ab1(Q252H)(h) (human) (UniProt P00519)
[3] = biological target: Ab1(T315I)(h) (human) (UniProt P00519)
[4] = biological target: Aurora-A(h) (human) (UniProt O14965)
[5] = biological target: Bmx(h) (human) (UniProt P51813)
[6] = biological target: CDK2/cyclinE(h) (human) (UniProt P24941)
[7] = biological target: CDK9/cyclin T1(h) (human) (UniProt P50750)
[8] = biological target: CK1δ(h) (human) (UniProt P48730)
Sequence of CK1δ(h) (human) (P48730 1-294, stated change not applied): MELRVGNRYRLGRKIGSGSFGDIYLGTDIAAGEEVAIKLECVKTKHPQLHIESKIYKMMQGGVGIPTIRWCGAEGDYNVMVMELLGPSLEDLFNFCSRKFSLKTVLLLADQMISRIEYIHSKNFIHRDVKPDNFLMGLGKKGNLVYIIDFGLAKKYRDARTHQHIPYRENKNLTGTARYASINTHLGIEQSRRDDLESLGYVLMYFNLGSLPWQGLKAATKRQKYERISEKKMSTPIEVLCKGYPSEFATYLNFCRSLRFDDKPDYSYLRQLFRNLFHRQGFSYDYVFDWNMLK

[9] = biological target: CaMKI(h) (human) (UniProt Q14012)
Sequence of CaMKI(h) (human) (Q14012 whole entry): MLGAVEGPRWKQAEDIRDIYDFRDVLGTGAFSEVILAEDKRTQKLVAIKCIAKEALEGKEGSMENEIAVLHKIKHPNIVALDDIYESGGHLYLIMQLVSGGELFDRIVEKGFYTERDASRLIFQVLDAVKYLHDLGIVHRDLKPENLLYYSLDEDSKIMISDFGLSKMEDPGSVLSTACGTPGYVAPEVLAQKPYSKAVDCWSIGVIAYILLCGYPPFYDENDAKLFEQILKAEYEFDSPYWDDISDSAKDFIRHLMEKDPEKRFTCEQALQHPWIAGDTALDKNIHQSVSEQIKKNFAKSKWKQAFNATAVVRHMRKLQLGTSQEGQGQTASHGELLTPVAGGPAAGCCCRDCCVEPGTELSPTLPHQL

[10] = biological target: CaMKIIβ(h) (human) (UniProt Q13554)
[11] = biological target: CaMKIIγ(h) (human) (UniProt Q13555)
[12] = biological target: CaMKIIδ(h) (human) (UniProt Q13557)
[13] = biological target: DDR2(h) (human) (UniProt Q16832)
[14] = biological target: EphA4(h) (human) (UniProt P54764)
[15] = biological target: EphB4(h) (human) (UniProt P54760)
[16] = biological target: FAK(h) (human) (UniProt Q05397)
[17] = biological target: FGFR3(h) (human) (UniProt P22607)
Sequence of FGFR3(h) (human) (P22607 397-806 limits assumed): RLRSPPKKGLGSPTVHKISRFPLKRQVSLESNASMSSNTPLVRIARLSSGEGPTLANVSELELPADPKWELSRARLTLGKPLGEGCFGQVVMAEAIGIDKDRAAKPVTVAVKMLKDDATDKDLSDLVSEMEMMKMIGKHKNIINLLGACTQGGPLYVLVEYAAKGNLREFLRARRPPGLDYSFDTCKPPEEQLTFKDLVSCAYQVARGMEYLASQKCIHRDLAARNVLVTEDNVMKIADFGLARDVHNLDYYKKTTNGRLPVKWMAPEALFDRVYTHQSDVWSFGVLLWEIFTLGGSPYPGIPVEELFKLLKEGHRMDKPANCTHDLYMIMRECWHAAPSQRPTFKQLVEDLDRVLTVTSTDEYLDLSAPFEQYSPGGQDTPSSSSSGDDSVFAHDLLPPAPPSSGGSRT

[18] = biological target: FGFR4(h) (human) (UniProt P22455)
[19] = biological target: Flt3(D835Y)(h) (human) (UniProt P36888)
[20] = biological target: Fms(h) (human) (UniProt P07333)
[21] = biological target: GCK(h) (human) (UniProt Q12851)
[22] = biological target: Haspin(h) (human) (UniProt Q8TF76)
[23] = biological target: Hck(h) (human) (UniProt P08631)
[24] = biological target: IGF-1R(h), activated (human) (UniProt P08069)
[25] = biological target: IR(h) (human) (UniProt P06213)
[26] = biological target: LOK(h) (human) (UniProt O94804)
[27] = biological target: Lck(h) activated (human) (UniProt P06239)
[28] = biological target: MAPKAP-K2(h) (human) (UniProt P49137)
[29] = biological target: MRCKα(h) (human) (UniProt Q5VT25)
Sequence of MRCKα(h) (human) (Q5VT25 1-473 limits assumed): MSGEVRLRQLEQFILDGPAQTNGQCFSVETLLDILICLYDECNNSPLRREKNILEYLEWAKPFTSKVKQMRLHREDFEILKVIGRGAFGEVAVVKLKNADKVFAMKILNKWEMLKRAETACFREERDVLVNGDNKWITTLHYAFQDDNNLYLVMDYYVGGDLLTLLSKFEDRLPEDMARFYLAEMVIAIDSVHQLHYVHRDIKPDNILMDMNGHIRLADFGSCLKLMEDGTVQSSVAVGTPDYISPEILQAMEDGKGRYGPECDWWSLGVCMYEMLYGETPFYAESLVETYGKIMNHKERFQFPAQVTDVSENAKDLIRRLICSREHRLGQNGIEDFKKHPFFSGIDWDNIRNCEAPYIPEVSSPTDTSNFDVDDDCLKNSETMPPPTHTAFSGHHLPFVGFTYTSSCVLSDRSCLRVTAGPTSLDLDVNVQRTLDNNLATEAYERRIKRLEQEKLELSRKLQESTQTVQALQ

[30] = biological target: MSK1(h) (human) (UniProt O75582)
[31] = biological target: MST2(h) (human) (UniProt Q13188)
[32] = biological target: MST3(h) (human) (UniProt Q9Y6E0)
[33] = biological target: Mer(h) (human) (UniProt Q12866)
[34] = biological target: Met(D1246H)(h) (human) (UniProt P08581)
[35] = biological target: Met(D1246N)(h) (human) (UniProt P08581)
[36] = biological target: Met(Y1248D)(h) (human) (UniProt P08581)
[37] = biological target: Mnk2(h) (human) (UniProt Q9HBH9)
[38] = biological target: PAK2(h) (human) (UniProt Q13177)
[39] = biological target: PASK(h) (human) (UniProt Q96RG2)
[40] = biological target: PDGFRα(D842V)(h) (human) (UniProt P16234)
Sequence of PDGFRα(D842V)(h) (human) (P16234 550-1089 D842V limits assumed): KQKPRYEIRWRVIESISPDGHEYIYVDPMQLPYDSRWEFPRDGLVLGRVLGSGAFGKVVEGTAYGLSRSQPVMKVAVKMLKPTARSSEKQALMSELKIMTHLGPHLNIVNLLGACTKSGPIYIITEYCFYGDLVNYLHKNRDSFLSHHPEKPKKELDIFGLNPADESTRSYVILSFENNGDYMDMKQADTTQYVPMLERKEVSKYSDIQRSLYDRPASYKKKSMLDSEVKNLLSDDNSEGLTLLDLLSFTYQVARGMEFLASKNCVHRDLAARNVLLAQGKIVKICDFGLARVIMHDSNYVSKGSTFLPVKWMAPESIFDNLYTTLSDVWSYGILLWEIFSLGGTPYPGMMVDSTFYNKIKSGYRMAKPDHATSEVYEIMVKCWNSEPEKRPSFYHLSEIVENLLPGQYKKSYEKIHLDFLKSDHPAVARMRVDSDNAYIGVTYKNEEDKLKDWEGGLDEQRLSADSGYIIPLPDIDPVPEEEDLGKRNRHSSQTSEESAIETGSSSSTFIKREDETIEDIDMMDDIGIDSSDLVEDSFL

[41] = biological target: PDK1(h) (human) (UniProt O15530)
[42] = biological target: PKCα(h) (human) (UniProt P17252)
[43] = biological target: PKCζ(h) (human) (UniProt Q05513)
Sequence of PKCζ(h) (human) (Q05513 whole entry): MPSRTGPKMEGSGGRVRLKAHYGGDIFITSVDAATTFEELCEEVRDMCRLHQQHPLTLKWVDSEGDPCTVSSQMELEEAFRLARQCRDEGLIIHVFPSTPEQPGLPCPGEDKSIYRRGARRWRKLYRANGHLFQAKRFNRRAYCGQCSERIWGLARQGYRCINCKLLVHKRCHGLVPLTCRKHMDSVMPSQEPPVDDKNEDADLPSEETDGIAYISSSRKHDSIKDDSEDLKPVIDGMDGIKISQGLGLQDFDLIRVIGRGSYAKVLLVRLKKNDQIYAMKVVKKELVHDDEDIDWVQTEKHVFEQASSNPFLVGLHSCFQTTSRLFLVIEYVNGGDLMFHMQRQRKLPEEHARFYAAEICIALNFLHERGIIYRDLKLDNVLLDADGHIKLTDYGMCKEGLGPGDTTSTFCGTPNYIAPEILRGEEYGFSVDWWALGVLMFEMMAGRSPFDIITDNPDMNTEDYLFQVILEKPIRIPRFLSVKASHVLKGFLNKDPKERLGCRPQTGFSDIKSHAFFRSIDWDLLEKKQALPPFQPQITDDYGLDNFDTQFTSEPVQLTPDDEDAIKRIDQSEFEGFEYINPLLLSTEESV

[44] = biological target: PKCη(h) (human) (UniProt P24723)
[45] = biological target: PKCθ(h) (human) (UniProt Q04759)
[46] = biological target: Pim-2(h) (human) (UniProt Q9P1W9)
[47] = biological target: Pim-3(h) (human) (UniProt Q86V86)
[48] = biological target: Ret(h) (human) (UniProt P07949)
[49] = biological target: Rsk3(h) (human) (UniProt Q15349)
[50] = biological target: SAPK4(h) (human) (UniProt O15264)
[51] = biological target: SRPK1(h) (human) (UniProt Q96SB4)
[52] = biological target: Tie2(Y897S)(h) (human) (UniProt Q02763)
[53] = biological target: ZAP-70(h) (human) (UniProt P43403)
Sequence of ZAP-70(h) (human) (P43403 whole entry): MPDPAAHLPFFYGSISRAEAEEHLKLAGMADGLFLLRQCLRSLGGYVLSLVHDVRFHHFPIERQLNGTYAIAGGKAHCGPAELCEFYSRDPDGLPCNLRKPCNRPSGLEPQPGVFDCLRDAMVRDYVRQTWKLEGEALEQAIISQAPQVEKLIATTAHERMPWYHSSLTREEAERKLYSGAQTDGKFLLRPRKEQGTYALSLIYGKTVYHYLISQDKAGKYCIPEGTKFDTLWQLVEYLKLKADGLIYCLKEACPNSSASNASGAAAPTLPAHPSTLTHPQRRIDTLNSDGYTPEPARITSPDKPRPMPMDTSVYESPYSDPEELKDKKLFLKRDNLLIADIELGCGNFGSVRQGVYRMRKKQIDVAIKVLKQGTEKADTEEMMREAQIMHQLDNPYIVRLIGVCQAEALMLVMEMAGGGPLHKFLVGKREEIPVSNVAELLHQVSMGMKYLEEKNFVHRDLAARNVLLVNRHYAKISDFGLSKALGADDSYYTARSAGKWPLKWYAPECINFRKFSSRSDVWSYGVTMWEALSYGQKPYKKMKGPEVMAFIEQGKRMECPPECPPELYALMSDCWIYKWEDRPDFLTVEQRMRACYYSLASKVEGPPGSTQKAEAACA

[54] = biological target: cKit(D816H)(h) (human) (UniProt P10721)
[55] = biological target: cSRC(h) (human) (UniProt P12931)
[56] = biological target: mTOR/FKBP12(h) (human) (UniProt P42345)
Also: test concentration or dose not given here.

Sequence of Ab1(H396P)(h) (human) (P00519 27-1130 H396P limits assumed): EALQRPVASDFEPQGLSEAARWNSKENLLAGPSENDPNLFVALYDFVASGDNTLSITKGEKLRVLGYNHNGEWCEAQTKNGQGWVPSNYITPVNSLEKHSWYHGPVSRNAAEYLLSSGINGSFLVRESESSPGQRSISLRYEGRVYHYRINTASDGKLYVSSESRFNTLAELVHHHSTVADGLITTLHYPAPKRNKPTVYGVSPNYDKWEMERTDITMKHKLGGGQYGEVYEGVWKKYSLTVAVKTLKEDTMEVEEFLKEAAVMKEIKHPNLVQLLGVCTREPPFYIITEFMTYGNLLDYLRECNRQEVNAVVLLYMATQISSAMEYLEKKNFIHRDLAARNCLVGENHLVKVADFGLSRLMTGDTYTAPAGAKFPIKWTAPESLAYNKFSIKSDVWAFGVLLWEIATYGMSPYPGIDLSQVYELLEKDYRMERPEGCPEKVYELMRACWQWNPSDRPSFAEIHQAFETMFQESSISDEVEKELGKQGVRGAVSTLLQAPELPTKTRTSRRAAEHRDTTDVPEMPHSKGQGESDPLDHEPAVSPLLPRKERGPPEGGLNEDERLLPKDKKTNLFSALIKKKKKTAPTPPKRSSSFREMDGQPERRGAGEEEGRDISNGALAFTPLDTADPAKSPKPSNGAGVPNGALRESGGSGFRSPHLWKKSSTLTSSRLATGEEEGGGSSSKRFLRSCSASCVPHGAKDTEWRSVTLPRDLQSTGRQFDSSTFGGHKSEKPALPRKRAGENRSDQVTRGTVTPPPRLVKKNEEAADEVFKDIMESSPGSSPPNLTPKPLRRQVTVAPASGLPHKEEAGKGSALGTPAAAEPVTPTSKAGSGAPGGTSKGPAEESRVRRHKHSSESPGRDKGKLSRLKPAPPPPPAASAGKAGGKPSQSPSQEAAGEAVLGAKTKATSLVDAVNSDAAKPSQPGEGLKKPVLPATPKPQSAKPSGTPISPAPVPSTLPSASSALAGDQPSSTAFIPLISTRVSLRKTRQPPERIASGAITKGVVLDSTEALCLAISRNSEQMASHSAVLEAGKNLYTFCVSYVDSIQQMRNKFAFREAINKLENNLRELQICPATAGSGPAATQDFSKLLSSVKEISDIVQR
Sequence of Ab1(T315I)(h) (human) (P00519 27-1130 T315I limits assumed): as the sequence (P00519 27-1130 H396P limits assumed) above, with T289I, P370H counted along it
Sequence of Ab1(Q252H)(h) (human) (P00519 27-1130 Q252H limits assumed): as the sequence (P00519 27-1130 H396P limits assumed) above, with Q226H, P370H counted along it

MMI-0200 (peptide)
% activity [1]: 121%
% activity [2]: 107%
% activity [3]: 108%
% activity [4]: 107%
% activity [5]: 76%
% activity [6]: 112%
% activity [7]: 103%
% activity [8]: 92%
% activity [9]: 21%
% activity [10]: 53%
% activity [11]: 94%
% activity [12]: 2%
% activity [13]: 104%
% activity [14]: 127%
% activity [15]: 131%
% activity [16]: 110%
% activity [17]: 208%
% activity [18]: 75%
% activity [19]: 115%
% activity [20]: 92%
% activity [21]: 99%
% activity [22]: 71%
% activity [23]: 107%
% activity [24]: 94%
% activity [25]: 90%
% activity [26]: 67%
% activity [27]: 90%
% activity [28]: 35%
% activity [29]: 103%
% activity [30]: 50%
% activity [31]: 104%
% activity [32]: 95%
% activity [33]: 90%
% activity [34]: 139%
% activity [35]: 149%
% activity [36]: 118%
% activity [37]: 106%
% activity [38]: 69%
% activity [39]: 60%
% activity [40]: 107%
% activity [41]: 143%
% activity [42]: 100%
% activity [43]: 98%
% activity [44]: 101%
% activity [45]: 101%
% activity [46]: 74%
% activity [47]: 94%
% activity [48]: 96%
% activity [49]: 109%
% activity [50]: 106%
% activity [51]: 93%
% activity [52]: 85%
% activity [53]: 58%
% activity [54]: 106%
% activity [55]: 32%
% activity [56]: 118%
